Data on 15 molecules can be found in US20140178329A1 (INSTITUCIO CATALANA DE RECERCA I ESTUDIS AVANCATS ICREA, published 2014).

One may read the Kd as the equilibrium constant for the complex coming apart. What is called koff is the first-order rate constant of dissociation. As usually defined, the kon is the rate constant with which the complex forms.

The chains are these.
B1: FLAG-tagged wild-type soluble APRIL (amino acid 105 to 250) (ligand)
chain: AVLTQKQKKQHSVLHLVPINATSKDDSDVTEVMWQPALRRGRGLQAQGYGVRIQDAGVYLLYSQVLFQDVTFTMGQVVSREGQGRQETLFRCIRSMPSHPDRAYNSCYSAGVFHLHQGDILSVIIPRARAKLNLSPHGTFLGFVKL
notes: Used as conditioned medium of transfected 293T cells, not purified; also called WT; WT APRIL; not shown: FLAG tag
B5: mouse BCMA-Fc (R&D Systems) (Fc fusion, UniProt O88472 2-49, looked up)
chain: AQQCFHSEYFDSLLHACKPCHLRCSNPPATCQPYCDPSVTSSVKGTYT
notes: Bought; also called mBCMA-Fc; murine BCMA-Fc; not shown: Fc portion of human IgG1
B7: mouse TACI-Fc (R&D Systems) (Fc fusion, UniProt Q9ET35 5-129, looked up)
chain: FCPKDQYWDSSRKSCVSCALTCSQRSQRTCTDFCKFINCRKEQGRYYDHLLGACVSCDSTCTQHPQQCAHFCEKRPRSQANLQPELGRPQAGEVEVRSDNSGRHQGSEHGPGLRLSSDQLTLYCT
notes: Bought; also called mTACI-Fc; murine TACI-Fc; not shown: Fc portion of human IgG1

No end group written: not given here.

In one experiment the target is T1, human TACI-Fc (human, UniProt O14836 2-160, limits assumed).
T1 construct: Generated in-house; not shown: Fc portion of human IgG1
T1 sequence (looked up): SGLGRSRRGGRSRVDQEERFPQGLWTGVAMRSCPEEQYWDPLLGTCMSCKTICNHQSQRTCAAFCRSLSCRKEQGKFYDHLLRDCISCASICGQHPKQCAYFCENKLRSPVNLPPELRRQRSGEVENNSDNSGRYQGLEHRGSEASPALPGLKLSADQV
The experiment in a line: SPR (Biacore 2000), FLAG-APRIL captured by anti-FLAG M2, receptor-Fc injected, single cycle kinetics, 1:1 fit. The method, then:
(§1) FIG. 10: Surface Plasmon Resonance sensorgrams to illustrate binding of TACI-Fc and BCMA-Fc to WT and R206E-APRIL. Sensorgrams of human (Panel A) and mouse (Panel B) receptors binding to WT and R206E-APRIL. Stepwise increments in the curves represent sequential injections of receptor at the following concentrations: […]. In some cases, no value for affinity was calculated due to a low binding response or high drift.
(§2) In order to further assess the binding properties of the mutants and to measure apparent affinities and kinetics of receptor binding, a Surface Plasmon Resonance based receptor binding assay was performed on a Biacore 2000 (GE Healthcare, Diegem, Belgium). Anti-FLAG-M2 monoclonal antibody (Sigma-Aldrich) was diluted at a concentration of 5 μg/ml in 10 mM sodium acetate pH 4.5 and covalently immobilized (approx 1500 RU) to a CM-5 sensor chip (GE Healthcare), using standard amine coupling chemistry according to manufacturer's guidelines (Amine coupling kit, GE Healthcare). The different FLAG-APRIL variants in the form of tissue culture supernatants were captured onto the chip via the FLAG-tag at 10 μl/minute for five minutes, giving capture levels ranging from 159 to 207 RU. As a reference lane, one of the flow cells was left free of soluble FLAG-APRIL, to control for any background binding. BCMA- or TACI-Fc were then injected for three minutes over all four flow cells at 30 μl/minutes at increasing concentrations (ranging from 1-50 nM) using the single cycle kinetics method at 25° C. Dissociation was monitored for five minutes. The resulting curves were fitted using a 1:1 Langmuir model using BIAevaluation software 4.1. For each combination of FLAG-APRIL and BCMA- or TACI-Fc, the apparent kₐ, kd and KD were calculated from a global fit of binding curves from at least three separate experiments. Non-specific binding in the reference cell was subtracted before curve fitting. Regeneration of the anti-FLAG antibody surface was carried out with a 10-minute injection at 30 μl/minute of a mixture of ⅓ volume of TBS pH 11.5, ⅓ volume of Ionic solution and ⅓ volume of water. The Ionic solution was comprised of KSCN (0.46 M), MgCl₂ (1.83 M), urea (0.92 M) and guanidine-HCl (1.83 M).
Background: SPR reads the build-up and loss of mass on a sensor chip optically.

The target in experiment [1] is B5. The experiment is described as follows: receptor-binding ELISA, mouse BCMA-Fc coated, dilution series of conditioned medium, anti-FLAG-HRP, OD 405 nm [TACI selective, Ms BCMA-Fc coated]. The method, then:
(§3) The relative binding of the variants to either BCMA or TACI, was tested using a binding ELISA. The following proteins were used: human BCMA-Fc, human TACI-Fc (both generated in-house), mouse BCMA-Fc (R&D Systems, Abingdon, UK), mouse TACI-Fc (R&D Systems); in all cases the Fc portion is from human IgG1. BCMA-Fc and TACI-Fc were coated on 96-well Nunc Maxisorp plates (Thermo Fischer Scientific, Roskilde, Denmark) at concentrations of 1 μg/ml and 2 μg/ml, respectively, in 0.5 M sodium bicarbonate buffer pH 9.5, overnight at 4° C. Plates were then blocked with 5% BSA for one hour at 37° C. Soluble APRIL variants in the form of tissue culture conditioned medium were then added to the plate for two hours at 37° C. Following APRIL binding, plates were washed three times with PBS, 0.05% TWEEN®20. Bound APRIL was detected with 1 μg/ml of HRP-coupled anti-FLAG M2 and visualized with 2,2′-azino-bis(3-ethylbenzothiazoline-6-sulphonic acid (ABTS) (Sigma-Aldrich). The absorbance was read at 405 nm using a UV-VIS microplate reader (BioRad, Veenendaal, The Netherlands).

The target in experiment [2] is B7. The experiment is described as follows: receptor-binding ELISA, mouse TACI-Fc coated, dilution series of conditioned medium, anti-FLAG-HRP, OD 405 nm [TACI selective, Ms TACI-Fc coated]. The method, then: as §3
On the technique in general: ELISA stands for enzyme-linked immunosorbent assay.

Experiment [3] has as its target B1. The experiment is described as follows: SPR (Biacore 2000), FLAG-APRIL captured by anti-FLAG M2, receptor-Fc injected, single cycle kinetics, 1:1 fit. The method, then: as §1, §2
For experiment [4], the target named is B7. The experiment in a line: receptor-binding ELISA, mouse TACI-Fc coated [TACI selective, Ms TACI-Fc coated]. The method, then: as §3
Experiment [5] concerns the target B5. The experiment is described as follows: receptor-binding ELISA, mouse BCMA-Fc coated, dilution series of conditioned medium, anti-FLAG-HRP, OD 405 nm [BCMA selective, Ms BCMA-Fc coated]. The method, then:
as §3

As to B1, in the experiment with human TACI-Fc, the dissociation constant (Kd) amounted to 3.9 nM, the off-rate constant (koff) is 0.00041 s⁻¹ and the kon stood at 110000 M⁻¹ s⁻¹.

B2: R233E (ligand)
soluble APRIL monomer: AVLTQKQKKQHSVLHLVPINATSKDDSDVTEVMWQPALRRGRGLQAQGYGVRIQDAGVYLLYSQVLFQDVTFTMGQVVSREGQGRQETLFRCIRSMPSHPDRAYNSCYSAGVFHLHQGDILSVIIPRAEAKLNLSPHGTFLGFVKL
notes: FLAG-tagged soluble variant used as 293T conditioned medium; predicted TACI-selective; member of group m13; also called APRIL-R233E
For the molecule B2, the binding result in experiment [1] and in experiment [2] was “binds” throughout.

B3: human BCMA-Fc (Fc fusion, UniProt Q02223 2-54, looked up)
chain: LQMAGQCSQNEYFDSLLHACIPCQLRCSSNTPPLTCQRYCNASVTNSVKGTNA
modifications: cysteine pairing not given here; also: fused to human IgG1 Fc, construct limits, linker and order not given here
notes: Generated in-house; not shown: Fc portion of human IgG1
B3: in experiment [3], the dissociation constant (Kd) stood at 0.38 nM, the off-rate constant (koff) is 0.0002 s⁻¹ and the kon was found to be 530000 M⁻¹ s⁻¹.

B4: T175F (ligand)
soluble APRIL monomer: AVLTQKQKKQHSVLHLVPINATSKDDSDVTEVMWQPALRRGRGLQAQGYGVRIQDAGVYLLYSQVLFQDVFFTMGQVVSREGQGRQETLFRCIRSMPSHPDRAYNSCYSAGVFHLHQGDILSVIIPRARAKLNLSPHGTFLGFVKL
notes: FLAG-tagged soluble variant used as 293T conditioned medium; predicted TACI-selective; member of group m13; also called APRIL-T175F
With B4, the binding result is recorded as “binds” in experiment [1] and “no binding” in experiment [4].
In the case of B5, in experiment [3], the Kd came out at 0.14 nM, the koff is 0.00013 s⁻¹ and the kon worked out at 890000 M⁻¹ s⁻¹.

B6: D132A (ligand)
soluble APRIL monomer: AVLTQKQKKQHSVLHLVPINATSKDDSAVTEVMWQPALRRGRGLQAQGYGVRIQDAGVYLLYSQVLFQDVTFTMGQVVSREGQGRQETLFRCIRSMPSHPDRAYNSCYSAGVFHLHQGDILSVIIPRARAKLNLSPHGTFLGFVKL
notes: FLAG-tagged soluble variant used as 293T conditioned medium; predicted TACI-selective; member of group m13; also called APRIL-D132A
In the case of B6, the binding result in experiment [1] and in experiment [2] was “binds” throughout.
Regarding B7, in experiment [3], the Kd is 4.4 nM, the off-rate constant (koff) was 0.00075 s⁻¹ and the kon came out at 170000 M⁻¹ s⁻¹.

B8: APRIL-D132F (FLAG-tagged soluble variant) (ligand)
chain: AVLTQKQKKQHSVLHLVPINATSKDDSFVTEVMWQPALRRGRGLQAQGYGVRIQDAGVYLLYSQVLFQDVTFTMGQVVSREGQGRQETLFRCIRSMPSHPDRAYNSCYSAGVFHLHQGDILSVIIPRARAKLNLSPHGTFLGFVKL
notes: Used as conditioned medium; not shown: FLAG tag
Consider B8, for which the binding result in experiment [1] is given as “binds”.

B9: APRIL-T175D (FLAG-tagged soluble variant) (ligand)
chain: AVLTQKQKKQHSVLHLVPINATSKDDSDVTEVMWQPALRRGRGLQAQGYGVRIQDAGVYLLYSQVLFQDVDFTMGQVVSREGQGRQETLFRCIRSMPSHPDRAYNSCYSAGVFHLHQGDILSVIIPRARAKLNLSPHGTFLGFVKL
notes: as for B8
For the molecule B9, the binding result in experiment [5] is “binds”.

B10: T175Y (ligand)
soluble APRIL monomer: AVLTQKQKKQHSVLHLVPINATSKDDSDVTEVMWQPALRRGRGLQAQGYGVRIQDAGVYLLYSQVLFQDVYFTMGQVVSREGQGRQETLFRCIRSMPSHPDRAYNSCYSAGVFHLHQGDILSVIIPRARAKLNLSPHGTFLGFVKL
notes: FLAG-tagged soluble variant used as 293T conditioned medium; predicted TACI-selective; member of group m13; also called APRIL-T175Y
In the case of B10, the binding result in experiment [1] is recorded as “binds”; in experiment [4], “no binding”.

B11: APRIL-H241T (FLAG-tagged soluble variant) (ligand)
chain: AVLTQKQKKQHSVLHLVPINATSKDDSDVTEVMWQPALRRGRGLQAQGYGVRIQDAGVYLLYSQVLFQDVTFTMGQVVSREGQGRQETLFRCIRSMPSHPDRAYNSCYSAGVFHLHQGDILSVIIPRARAKLNLSPTGTFLGFVKL
notes: not shown: FLAG tag
With B11, the binding result in experiment [1] and in experiment [2] was “binds” in each case.

B12: APRIL-D132Y (FLAG-tagged soluble variant) (ligand)
chain: AVLTQKQKKQHSVLHLVPINATSKDDSYVTEVMWQPALRRGRGLQAQGYGVRIQDAGVYLLYSQVLFQDVTFTMGQVVSREGQGRQETLFRCIRSMPSHPDRAYNSCYSAGVFHLHQGDILSVIIPRARAKLNLSPHGTFLGFVKL
notes: as for B8
With B12, the binding result in experiment [1] is “binds”.

B13: APRIL-D205Y (FLAG-tagged soluble variant) (ligand)
chain: AVLTQKQKKQHSVLHLVPINATSKDDSDVTEVMWQPALRRGRGLQAQGYGVRIQDAGVYLLYSQVLFQDVTFTMGQVVSREGQGRQETLFRCIRSMPSHPYRAYNSCYSAGVFHLHQGDILSVIIPRARAKLNLSPHGTFLGFVKL
notes: as for B8
For B13, the binding result in experiment [5] was “binds”.

B14: R233A (ligand)
soluble APRIL monomer: AVLTQKQKKQHSVLHLVPINATSKDDSDVTEVMWQPALRRGRGLQAQGYGVRIQDAGVYLLYSQVLFQDVTFTMGQVVSREGQGRQETLFRCIRSMPSHPDRAYNSCYSAGVFHLHQGDILSVIIPRAAAKLNLSPHGTFLGFVKL
notes: FLAG-tagged soluble variant used as 293T conditioned medium; predicted TACI-selective; member of group m13; also called APRIL-R233A
Consider B14, for which the binding result in experiment [1] and in experiment [2] was “binds” in each case.

B15: T175L (ligand)
soluble APRIL monomer: AVLTQKQKKQHSVLHLVPINATSKDDSDVTEVMWQPALRRGRGLQAQGYGVRIQDAGVYLLYSQVLFQDVLFTMGQVVSREGQGRQETLFRCIRSMPSHPDRAYNSCYSAGVFHLHQGDILSVIIPRARAKLNLSPHGTFLGFVKL
notes: FLAG-tagged soluble variant used as 293T conditioned medium; predicted TACI-selective; member of group m13; also called APRIL-T175L
As for B15, the binding result is “binds” in experiment [1] and “no binding” in experiment [4].
